Legend:
Assay in all cases: filter
[1] = biological target: IL-23 (human, p19/p40 heterodimer) (Homo sapiens) (UniProt Q9NPF7+P29460)
[2] = biological target: T1, IL-12 (mouse, p35/p40 heterodimer) (Mus musculus) (UniProt P43431+P43432); conditions: 2'-F all C and U (rRfY); 1X PBS, 0.1 mg/mL BSA, 30 min RT
T1 sequence 1: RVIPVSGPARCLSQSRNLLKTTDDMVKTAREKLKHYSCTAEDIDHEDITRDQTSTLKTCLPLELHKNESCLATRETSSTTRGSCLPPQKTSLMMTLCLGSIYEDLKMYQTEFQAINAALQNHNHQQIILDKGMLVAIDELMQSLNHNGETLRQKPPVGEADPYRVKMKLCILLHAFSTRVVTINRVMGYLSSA
T1 sequence 2: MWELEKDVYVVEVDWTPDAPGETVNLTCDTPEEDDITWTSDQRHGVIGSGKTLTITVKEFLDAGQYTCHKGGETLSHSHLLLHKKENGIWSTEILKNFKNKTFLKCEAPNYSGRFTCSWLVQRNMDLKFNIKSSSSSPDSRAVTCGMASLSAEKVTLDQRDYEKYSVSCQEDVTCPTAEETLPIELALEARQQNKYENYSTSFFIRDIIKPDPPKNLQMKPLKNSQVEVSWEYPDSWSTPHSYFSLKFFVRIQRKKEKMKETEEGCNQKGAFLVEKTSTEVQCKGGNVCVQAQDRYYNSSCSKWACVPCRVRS

[3] = biological target: T2, IL-23 (mouse, p19/p40 heterodimer) (Mus musculus) (UniProt Q9EQ14+P43432); conditions: 2'-F all C and U (rRfY); 1X PBS, 0.1 mg/mL BSA, 30 min RT
T2 sequence 1: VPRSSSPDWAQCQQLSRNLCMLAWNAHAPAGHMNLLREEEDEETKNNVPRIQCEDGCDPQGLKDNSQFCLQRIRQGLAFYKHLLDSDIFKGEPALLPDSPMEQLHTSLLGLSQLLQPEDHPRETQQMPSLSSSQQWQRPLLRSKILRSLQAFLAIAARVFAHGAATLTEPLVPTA
T2 sequence 2: T1 sequence 2

[4] = biological target: IL-12 (human, p35/p40 heterodimer) (Homo sapiens) (UniProt P29459+P29460)
Chain of IL-12 (human, p35/p40 heterodimer) (Homo sapiens) (P29459 23-219, chain 1 of 2): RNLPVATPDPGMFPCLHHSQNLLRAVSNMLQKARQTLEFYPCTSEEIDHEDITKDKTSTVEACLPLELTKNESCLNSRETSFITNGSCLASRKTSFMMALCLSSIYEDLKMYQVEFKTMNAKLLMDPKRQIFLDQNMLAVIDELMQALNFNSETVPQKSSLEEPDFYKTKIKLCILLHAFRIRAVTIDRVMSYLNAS
Chain of IL-12 (human, p35/p40 heterodimer) (Homo sapiens) (P29460 23-328, chain 2 of 2): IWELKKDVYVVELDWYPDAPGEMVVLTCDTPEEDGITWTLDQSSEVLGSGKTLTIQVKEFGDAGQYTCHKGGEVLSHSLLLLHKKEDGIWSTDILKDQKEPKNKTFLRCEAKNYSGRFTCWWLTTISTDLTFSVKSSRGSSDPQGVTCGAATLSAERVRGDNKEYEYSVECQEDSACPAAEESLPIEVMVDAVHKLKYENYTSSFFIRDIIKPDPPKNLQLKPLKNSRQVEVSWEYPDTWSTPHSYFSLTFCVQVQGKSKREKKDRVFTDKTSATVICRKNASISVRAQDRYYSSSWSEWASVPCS

Chain of IL-23 (human, p19/p40 heterodimer) (Homo sapiens) (Q9NPF7 20-189, chain 1 of 2): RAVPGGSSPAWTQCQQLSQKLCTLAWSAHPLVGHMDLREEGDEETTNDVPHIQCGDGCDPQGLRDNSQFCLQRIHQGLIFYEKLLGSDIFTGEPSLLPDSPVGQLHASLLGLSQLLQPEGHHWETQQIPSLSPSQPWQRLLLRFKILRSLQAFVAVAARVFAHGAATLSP
Chain of IL-23 (human, p19/p40 heterodimer) (Homo sapiens) (P29460 23-328, chain 2 of 2): as the sequence (P29460 23-328, chain 2 of 2) above

## ACAGGCAAGUAAUUGGGGAGUGCGGGCGGGGUGU [ARC1466]
[1]; deoxy A,G, 2'-OMe C,U, PEG spacers between stem 1 strands and core, 3'-idT, DPBS Ca Mg
  Kd: 1.9 nM

## ACAGGCAAGUAAUUGGGGAGUGCGGGCGGGGUGU [ARC1592]
[1]; deoxy A,G, 2'-OMe C,U, dI at G5, 3'-idT [dI at 5 (parent G), 2'-OMe C,U at 2,6,10,13,14,21,23,27,32,34, deoxy A,G elsewhere, 3'-inverted dT at 35], DPBS Ca Mg
  Kd: 8.1 nM

## ACAGGCAAGUAAUUGGGGAGUGCGGGCGGGGUGU [ARC1593]
[1]; deoxy A,G, 2'-OMe C,U, dI at G4,G5, 3'-idT [dI at 4,5 (parent G), 2'-OMe C,U at 2,6,10,13,14,21,23,27,32,34, deoxy A,G elsewhere, 3'-inverted dT at 35], DPBS Ca Mg
  Kd: 13.8 nM

## ACAGGCAAGUAAUUGGGGAGUGCGGGCGGGGUGU [ARC1594]
[1]; deoxy A,G, 2'-OMe C,U, dI at G9, 3'-idT [dI at 9 (parent G), 2'-OMe C,U at 2,6,10,13,14,21,23,27,32,34, deoxy A,G elsewhere, 3'-inverted dT at 35], DPBS Ca Mg
  Kd: 4.2 nM

## ACAGGCAAGUAAUUGGGGAGUGCGGGCGGGGUGU [ARC1595]
[1]; deoxy A,G, 2'-OMe C,U, dI at G15, 3'-idT [dI at 15 (parent G), 2'-OMe C,U at 2,6,10,13,14,21,23,27,32,34, deoxy A,G elsewhere, 3'-inverted dT at 35], DPBS Ca …
  Kd: 5.4 nM

## ACAGGCAAGUAAUUGGGGAGUGCGGGCGGGGUGU [ARC1596]
[1]; deoxy A,G, 2'-OMe C,U, dI at G16, 3'-idT [dI at 16 (parent G), 2'-OMe C,U at 2,6,10,13,14,21,23,27,32,34, deoxy A,G elsewhere, 3'-inverted dT at 35], DPBS Ca …
  Kd: 11.1 nM

## ACAGGCAAGUAAUUGGGGAGUGCGGGCGGGGUGU [ARC1597]
[1]; deoxy A,G, 2'-OMe C,U, dI at G17, 3'-idT [17], DPBS Ca Mg
  Kd: 11.2 nM

## ACAGGCAAGUAAUUGGGGAGUGCGGGCGGGGUGU [ARC1598]
[1]; deoxy A,G, 2'-OMe C,U, dI at G18, 3'-idT [18], DPBS Ca Mg
  Kd: 4.7 nM

## ACAGGCAAGUAAUUGGGGAGUGCGGGCGGGGUGU [ARC1599]
[1]; deoxy A,G, 2'-OMe C,U, dI at G15,G16, 3'-idT [15,16], DPBS Ca Mg
  Kd: 7.2 nM

## ACAGGCAAGUAAUUGGGGAGUGCGGGCGGGGUGU [ARC1600]
[1]; deoxy A,G, 2'-OMe C,U, dI at G16,G17, 3'-idT [16,17], DPBS Ca Mg
  Kd: 15.6 nM

## ACAGGCAAGUAAUUGGGGAGUGCGGGCGGGGUGU [ARC1601]
[1]; deoxy A,G, 2'-OMe C,U, dI at G17,G18, 3'-idT [17,18], DPBS Ca Mg
  Kd: 4.4 nM

## ACAGGCAAGUAAUUGGGGAGUGCGGGCGGGGUGU [ARC1602]
[1]; dRmY, deoxyinosine at G15-G18, 3'-idT [deoxyinosine at 15-18 (parent base G written), 2'-deoxy purines, 2'-OMe C/U (2,6,10,13,14,21,23,27,32,34), 3'-inverted dT at 35], dot blot, DPBS with Ca and Mg, 0.1 mg/mL BSA, 30 min RT
  Kd: 40.8 nM

## ACAGGCAAGUAAUUGGGGAGUGCGGGCGGGGUGU [ARC1603]
[1]; deoxy A,G, 2'-OMe C,U, dI at G20, 3'-idT [20], DPBS Ca Mg
  Kd: 1.6 nM

## ACAGGCAAGUAAUUGGGGAGUGCGGGCGGGGUGU [ARC1604]
[1]; deoxy A,G, 2'-OMe C,U, dI at G22, 3'-idT [22], DPBS Ca Mg
  Kd: 2.1 nM

## ACAGGCAAGUAAUUGGGGAGUGCGGGCGGGGUGU [ARC1605]
[1]; deoxy A,G, 2'-OMe C,U, dI at G24, 3'-idT [24], DPBS Ca Mg
  Kd: 7.5 nM

## ACAGGCAAGUAAUUGGGGAGUGCGGGCGGGGUGU [ARC1606]
[1]; deoxy A,G, 2'-OMe C,U, dI at G25, 3'-idT [25], DPBS Ca Mg
  Kd: 5 nM

## ACAGGCAAGUAAUUGGGGAGUGCGGGCGGGGUGU [ARC1607]
[1]; deoxy A,G, 2'-OMe C,U, dI at G26, 3'-idT [26], DPBS Ca Mg
  Kd: 3.3 nM

## ACAGGCAAGUAAUUGGGGAGUGCGGGCGGGGUGU [ARC1608]
[1]; deoxy A,G, 2'-OMe C,U, dI at G24,G25, 3'-idT [24,25], DPBS Ca Mg
  Kd: 9.7 nM

## ACAGGCAAGUAAUUGGGGAGUGCGGGCGGGGUGU [ARC1609]
[1]; deoxy A,G, 2'-OMe C,U, dI at G25,G26, 3'-idT [25,26], DPBS Ca Mg
  Kd: 4.7 nM

## ACAGGCAAGUAAUUGGGGAGUGCGGGCGGGGUGU [ARC1610]
[1]; deoxy A,G, 2'-OMe C,U, dI at G24-G26, 3'-idT [dI at 24,25,26 (G parent), 2'-OMe C/U at 2,6,10,13,14,21,23,27,32,34, other A,G deoxy, 3'-inverted dT at 35], DPBS Ca Mg
  Kd: 5.2 nM

## ACAGGCAAGUAAUUGGGGAGUGCGGGCGGGGUGU [ARC1611]
[1]; deoxy A,G, 2'-OMe C,U, dI at G28, 3'-idT [dI at 28 (G parent), 2'-OMe C/U at 2,6,10,13,14,21,23,27,32,34, other A,G deoxy, 3'-inverted dT at 35], DPBS Ca Mg
  Kd: 1.7 nM

## ACAGGCAAGUAAUUGGGGAGUGCGGGCGGGGUGU [ARC1612]
[1]; deoxy A,G, 2'-OMe C,U, dI at G29, 3'-idT [dI at 29 (G parent), 2'-OMe C/U at 2,6,10,13,14,21,23,27,32,34, other A,G deoxy, 3'-inverted dT at 35], DPBS Ca Mg
  Kd: 1.9 nM

## ACAGGCAAGUAAUUGGGGAGUGCGGGCGGGGUGU [ARC1613]
[1]; deoxy A,G, 2'-OMe C,U, dI at G30, 3'-idT [dI at 30 (G parent), 2'-OMe C/U at 2,6,10,13,14,21,23,27,32,34, other A,G deoxy, 3'-inverted dT at 35], DPBS Ca Mg
  Kd: 2.3 nM

## ACAGGCAAGUAAUUGGGGAGUGCGGGCGGGGUGU [ARC1614]
[1]; deoxy A,G, 2'-OMe C,U, dI at G31, 3'-idT [dI at 31 (G parent), 2'-OMe C/U at 2,6,10,13,14,21,23,27,32,34, other A,G deoxy, 3'-inverted dT at 35], DPBS Ca Mg
  Kd: 1.7 nM

## ACAGGCAAGUAAUUGGGGAGUGCGGGCGGGGUGU [ARC1615]
[1]; deoxy A,G, 2'-OMe C,U, dI at G28,G29, 3'-idT [dI at 28,29 (G parent), 2'-OMe C/U at 2,6,10,13,14,21,23,27,32,34, other A,G deoxy, 3'-inverted dT at 35], DPBS Ca Mg
  Kd: 5.8 nM

## ACAGGCAAGUAAUUGGGGAGUGCGGGCGGGGUGU [ARC1616]
[1]; deoxy A,G, 2'-OMe C,U, dI at G29,G30, 3'-idT [dI at 29,30 (G parent), 2'-OMe C/U at 2,6,10,13,14,21,23,27,32,34, other A,G deoxy, 3'-inverted dT at 35], DPBS Ca Mg
  Kd: 6.1 nM

## ACAGGCAAGUAAUUGGGGAGUGCGGGCGGGGUGU [ARC1617]
[1]; deoxy A,G, 2'-OMe C,U, dI at G30,G31, 3'-idT [dI at 30,31 (G parent), 2'-OMe C/U at 2,6,10,13,14,21,23,27,32,34, other A,G deoxy, 3'-inverted dT at 35], DPBS Ca Mg
  Kd: 4.1 nM

## ACAGGCAAGUAAUUGGGGAGUGCGGGCGGGGUGU [ARC1618]
[1]; dRmY, deoxyinosine at G28-G31, 3'-idT [deoxyinosine at 28-31 (parent base G written), 2'-deoxy purines, 2'-OMe C/U (2,6,10,13,14,21,23,27,32,34), 3'-inverted dT at 35], dot blot, DPBS with Ca and Mg, 0.1 mg/mL BSA, 30 min RT
  Kd: 34 nM

## ACAGGCAAGUAAUUGGGGAGUGCGGGCGGGGUGU [ARC1619]
[1]; deoxy A,G, 2'-OMe C,U, dI at G33, 3'-idT [dI at 33 (G parent), 2'-OMe C/U at 2,6,10,13,14,21,23,27,32,34, other A,G deoxy, 3'-inverted dT at 35], DPBS Ca Mg
  Kd: 2.8 nM

## CGCAGGCAAGUAAUUGGGGAGUGCGGGCGGGGUGCG [ARC1467]
[1]; 2'-OMe C,U and some stem G, PEG spacers between stem 1 strands and core, 3'-idT, DPBS Ca Mg
  Kd: 1.7 nM

## GGAGCGCACUCAGCCACGGUUUACUUCCGUGGCAAUAUUGACCUCNCUCUAGACAGGUUUCGACCUCUCUGCUAGC [AMX369.F1]
[2]
  Kd: 165 nM
[3]
  Kd: 63 nM

## GGAGCGCACUCAGCCACUGGGGAACAUCUCAUGUCUCUGACCGCUCUUGCAGUAGAAUUUNGACCUCUCUGCUAGC [AMX369.G3]
[2]
  Kd: 261 nM
[3]
  Kd: 106 nM

## GGAGCGCACUCNGCCACUUCGGAAUAUCGUUGUCUUCUGGGUGAGCAUGCGUUGAGGUUUCNACCUCUCUGCUAGC [AMX369.B2]
[2]
  Kd: 252 nM
[3]
  Kd: 49 nM

## GGGAAAAGCGAAUCAUACACAAGAGCGCUUUAGCGGGUAUAGCACUUUUCAUCUAAUGAANCCGUAGCUCCGCCAGAGACCAACCGAGAA [AMX86-H11]
[1]; 2'-F C,U, SHMCK, tRNA
  Kd: 367 nM
[4]; 2'-F C,U, tRNA
  Kd: 215 nM

## GGGAAAAGCGAAUCAUACACAAGAGGUUGAGUACGACGGAGUCNUGGCUAACACGGAAACUAGAGCUCCGCCAGAGACCAACCGAGAA [AMX86-B9]
[1]; 2'-F C,U, SHMCK, tRNA
  Kd: 23.7 nM
[4]; 2'-F C,U, tRNA
  Kd: 848 nM

## GGGAAAAGCGAAUCAUACACAAGAUGUUGAACCUCUUGUGCGUCCCGAUGUUUNGCAAUGUGGAGCUCCGCCAGAGACCAACCGAGAA [AMX86-F7]
[1]; 2'-F all C and U (rRfY), 1X SHMCK, 1 mM Mg, 1 mM Ca, 0.1 mg/mL tRNA, RT
  Kd: 147 nM
[4]; 2'-F all C and U (rRfY), 1X SHMCK, 0.1 mg/mL tRNA, RT
  Kd: 106 nM

## GGGAAAAGCGAAUCCUACCCAAGAUGUUGUUGGCGUUGAUCGUAUGAUUNAUGGAGNGUGUCNGUGCUCCGCCAGAGACCAACCGAGAA [AMX86-E7]
[1]; 2'-F C,U, SHMCK, tRNA
  Kd: 210 nM
[4]; 2'-F C,U, tRNA
  Kd: 268 nM

## GGGAGAGGAGAGAACGUUCUACGGAAGGNAACAANAGCACUGUUUGUGCAGGCGCUGUCGAUCNAUCNAUCNAUG [rRmY clone SEQ 85]
[1]; 2'-OMe C,U, DPBS Ca Mg
  Kd: 240 nM
